The target of experiment [1] is T1, HER3 extracellular domain (ECD) (UniProt P21860 20-643).
T1 construct: extracellular domain; Coupled to an amine-reactive biosensor surface at 10-15 ug/ml; also called HER3 ECD; ErbB3
The experiment can be described thus: FortéBio biosensor (BLI), HER3 ECD on amine-reactive surface; average (Stdev 111,000).

For experiment [2], the target named is HER3 on tumor cells (MCF-7, MB468) (UniProt P21860 20-1342, limits assumed). The experiment can be described thus: cell-based or functional assay.
The target of experiment [3] is T1, HER3 extracellular domain (ECD). The experiment can be described thus: FortéBio biosensor (BLI), HER3 ECD on amine-reactive surface, antibody in solution from 67 nM, 3-fold series; average (Stdev 2,660). The procedure:
Of these, six of these murine antibodies were assayed quantitatively for their binding affinities to HER3 ECD according to the commercially available FortéBio® method. In this method, ECD at 10-15 μg/ml was captured onto an amine-reactive surface in 10 mM MES, pH 6.0 at 25° C. Binding capacity is tested by treating the surface with unlabeled antibody. As unlabeled antibody accumulates on the surface, the optical characteristics of the surface are changed, thus allowing measurement of mass accumulation without requiring labeling. This is a modification of the Biacore™ style analysis. The antibodies were tested at 67 nM as the highest concentration and diluted in a three-fold dilution series. Response data for the various concentrations were individually and globally fitted to determine the binding affinities.

The target in a further experiment is T2, HER3:heregulin complex (UniProt P21860 20-643; Q02297 177-241, limits assumed).
T2 construct: Non-covalent receptor-ligand complex, formed on the biosensor by adding heregulin to immobilised HER3 ECD; also called heregulin active complex with HER3; complex of HER3 ECD with heregulin
The experiment can be described thus: FortéBio biosensor (BLI), HER3 ECD on amine surface loaded with heregulin at 10 ug/ml, antibody from 67 nM, 3-fold series; average (Stdev 113). The procedure:
The binding assay was repeated for two of the antibodies, 1G4 and 14B10 using the same FortéBio® method. HER3 ECD at 10-15 μg/ml was again captured onto the amine surface in the same buffer. Heregulin at 10 μg/ml was added to form the HER3:heregulin complex on the surface and the antibodies tested at 67 nM once again using three-fold dilution series and the data were fitted to determine binding constants.

T1 sequence (P21860 20-643 limits assumed): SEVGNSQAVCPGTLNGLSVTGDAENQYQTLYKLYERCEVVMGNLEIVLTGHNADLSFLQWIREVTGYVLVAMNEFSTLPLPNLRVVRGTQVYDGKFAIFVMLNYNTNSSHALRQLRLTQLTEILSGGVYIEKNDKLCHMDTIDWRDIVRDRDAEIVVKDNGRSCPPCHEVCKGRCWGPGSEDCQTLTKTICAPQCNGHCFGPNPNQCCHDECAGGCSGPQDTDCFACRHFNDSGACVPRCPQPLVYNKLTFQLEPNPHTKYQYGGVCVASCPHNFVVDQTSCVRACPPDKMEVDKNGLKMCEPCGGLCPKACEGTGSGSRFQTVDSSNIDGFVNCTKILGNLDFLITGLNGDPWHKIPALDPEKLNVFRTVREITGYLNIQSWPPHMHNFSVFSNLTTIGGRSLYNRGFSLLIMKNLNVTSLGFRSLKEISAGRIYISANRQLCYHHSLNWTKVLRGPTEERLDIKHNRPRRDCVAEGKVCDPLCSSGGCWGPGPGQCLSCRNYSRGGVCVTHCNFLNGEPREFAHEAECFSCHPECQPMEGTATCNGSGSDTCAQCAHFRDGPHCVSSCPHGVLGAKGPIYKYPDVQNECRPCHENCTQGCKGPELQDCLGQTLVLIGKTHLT
Sequence of HER3 on tumor cells (MCF-7, MB468) (P21860 20-1342 limits assumed): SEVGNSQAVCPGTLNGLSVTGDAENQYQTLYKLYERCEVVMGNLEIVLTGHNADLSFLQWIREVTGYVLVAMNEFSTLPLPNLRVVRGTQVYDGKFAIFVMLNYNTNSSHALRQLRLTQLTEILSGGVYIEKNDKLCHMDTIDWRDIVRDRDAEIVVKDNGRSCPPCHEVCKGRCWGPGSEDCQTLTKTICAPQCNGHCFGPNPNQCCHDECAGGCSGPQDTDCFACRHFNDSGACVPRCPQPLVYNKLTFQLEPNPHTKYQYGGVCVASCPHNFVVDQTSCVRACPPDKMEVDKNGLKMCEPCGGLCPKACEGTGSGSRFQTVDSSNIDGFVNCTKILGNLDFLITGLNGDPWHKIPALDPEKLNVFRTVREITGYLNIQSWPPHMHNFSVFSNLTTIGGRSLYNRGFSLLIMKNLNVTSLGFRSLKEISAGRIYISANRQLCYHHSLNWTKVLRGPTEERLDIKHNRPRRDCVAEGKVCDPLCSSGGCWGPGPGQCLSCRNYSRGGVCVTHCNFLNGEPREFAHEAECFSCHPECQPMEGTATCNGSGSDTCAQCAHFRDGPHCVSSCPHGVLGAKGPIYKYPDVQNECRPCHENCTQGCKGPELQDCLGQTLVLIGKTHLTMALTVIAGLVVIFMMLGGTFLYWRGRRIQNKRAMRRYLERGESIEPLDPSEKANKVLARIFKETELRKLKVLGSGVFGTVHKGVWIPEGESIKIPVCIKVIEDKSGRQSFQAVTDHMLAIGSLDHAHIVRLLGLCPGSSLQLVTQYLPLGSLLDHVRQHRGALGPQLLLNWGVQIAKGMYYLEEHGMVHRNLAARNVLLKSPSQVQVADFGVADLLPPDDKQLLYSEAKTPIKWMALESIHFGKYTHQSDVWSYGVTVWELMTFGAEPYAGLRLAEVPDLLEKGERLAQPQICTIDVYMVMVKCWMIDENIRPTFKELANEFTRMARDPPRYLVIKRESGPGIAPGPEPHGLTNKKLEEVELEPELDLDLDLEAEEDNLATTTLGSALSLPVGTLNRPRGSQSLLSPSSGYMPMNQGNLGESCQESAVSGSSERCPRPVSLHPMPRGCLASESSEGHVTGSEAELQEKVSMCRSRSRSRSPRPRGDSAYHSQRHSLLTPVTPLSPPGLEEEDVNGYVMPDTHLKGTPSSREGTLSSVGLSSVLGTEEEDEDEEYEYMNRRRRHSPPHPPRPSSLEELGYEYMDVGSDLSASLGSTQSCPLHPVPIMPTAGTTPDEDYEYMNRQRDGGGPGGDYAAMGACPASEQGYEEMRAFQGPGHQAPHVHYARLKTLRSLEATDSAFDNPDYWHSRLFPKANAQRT
T2 sequence (P21860 20-643 limits assumed, one chain of several): as the sequence (P21860 20-643 limits assumed) above

B1: heregulin (ligand, UniProt Q02297-6 177-241, looked up)
chain: SHLVKCAEKEKTFCVNGGECFMVKDLSNPSRYLCKCPNEFTGDRCQNYVMASFYKHLGIEFMEAE
notes: also called HRG
In experiment [1], B1 gave a Kd of 165 nM.

B2: 1G4 mAb (antibody, V domains shown)
VH: GASVKMSCKASGYTFTDYVISWVKQRTGQGLEWIGEIYPGSGRYYHNEKFKGKATLTADKSSNTAYIQLSSLTSEDSAVYFCTRSLQRLRYFDVWGAGTTVTVSS
VL: QSPATLSVTPGDRVSLSCRASQSISDYLHWYQQKSHESPRLLIKYGSQSISGIPSRFSGSGSGTDFTLSISSVETEDFGMYFCQQSNSWPLTFGAGTKLELKR
notes: Murine monoclonal antibody from a hybridoma; also called IG4; antibody 1G4
As for B2, the “IC50, inhibition of HER3 tyrosine phosphorylation in MCF-7 cells stimulated with heregulin” value in experiment [2] was approximately 10 ng/mL. Also, the figures for the Kd (in experiment [3]; in the experiment with HER3:heregulin complex) were 2.81 nM and 0.327 nM, respectively.
